Results from patent publication US20040248202A1 (WISCONSIN ALUMNI RESEARCH FOUNDATION, published 2004).

B1: BR-Rhodopsin loop 3 chimera, Rhodopsin Insert Y223 to M253 (3C) (other)
chain: QAQITGRPEWIWLALGTALMGLGTLYFLVKGMGVSDPDAKKFYAITTLVPAIAFTMYLSMLLGYGLTMVPFGGEQNPIYWARYADWLFTTPLLLLDLALLVDADQGTILALVGADGIMIGTGLVGALTKVYSYRFVWWAISTAAMLYILYVLFFGFTYGQLVFTVKEAAAQQQESATTQKAEKEVTRMVASTFKVLRNVTVVLWSAYPVVWLIGSEGAGIVPLNIETLLFMVLDVSAKVGFGLILLRSRAIFGEAEAPEPSAGDGAAATSD
B2: BR-Rhodopsin loop 3 chimera, Rhodopsin Insert Q225 to R252 (3H) (other)
chain: QAQITGRPEWIWLALGTALMGLGTLYFLVKGMGVSDPDAKKFYAITTLVPAIAFTMYLSMLLGYGLTMVPFGGEQNPIYWARYADWLFTTPLLLLDLALLVDADQGTILALVGADGIMIGTGLVGALTKVYSYRFVWWAISTAAMLYILYVLFFGFTQLVFTVKEAAAQQQESATTQKAEKEVTRVASTFKVLRNVTVVLWSAYPVVWLIGSEGAGIVPLNIETLLFMVLDVSAKVGFGLILLRSRAIFGEAEAPEPSAGDGAAATSD
B3: BR-Rhodopsin loop 3 chimera, Rhodopsin Insert Y223 to R252 (3G) (other)
chain: QAQITGRPEWIWLALGTALMGLGTLYFLVKGMGVSDPDAKKFYAITTLVPAIAFTMYLSMLLGYGLTMVPFGGEQNPIYWARYADWLFTTPLLLLDLALLVDADQGTILALVGADGIMIGTGLVGALTKVYSYRFVWWAISTAAMLYILYVLFFGFTYGQLVFTVKEAAAQQQESATTQKAEKEVTRVASTFKVLRNVTVVLWSAYPVVWLIGSEGAGIVPLNIETLLFMVLDVSAKVGFGLILLRSRAIFGEAEAPEPSAGDGAAATSD
B4: bacteriorhodopsin (other)
chain: QAQITGRPEWIWLALGTALMGLGTLYFLVKGMGVSDPDAKKFYAITTLVPAIAFTMYLSMLLGYGLTMVPFGGEQNPIYWARYADWLFTTPLLLLDLALLVDADQGTILALVGADGIMIGTGLVGALTKVYSYRFVWWAISTAAMLYILYVLFFGFTSKAESMRPEVASTFKVLRNVTVVLWSAYPVVWLIGSEGAGIVPLNIETLLFMVLDVSAKVGFGLILLRSRAIFGEAEAPEPSAGDGAAATSD
B5: BR-Rhodopsin loop 3 chimera, Rhodopsin Insert Y223 to T251 (3B) (other)
chain: QAQITGRPEWIWLALGTALMGLGTLYFLVKGMGVSDPDAKKFYAITTLVPAIAFTMYLSMLLGYGLTMVPFGGEQNPIYWARYADWLFTTPLLLLDLALLVDADQGTILALVGADGIMIGTGLVGALTKVYSYRFVWWAISTAAMLYILYVLFFGFTYGQLVFTVKEAAAQQQESATTQKAEKEVTVASTFKVLRNVTVVLWSAYPVVWLIGSEGAGIVPLNIETLLFMVLDVSAKVGFGLILLRSRAIFGEAEAPEPSAGDGAAATSD
B6: BR-Rhodopsin loop 3 chimera, Rhodopsin Insert Q225 to T251 (3D) (other)
chain: QAQITGRPEWIWLALGTALMGLGTLYFLVKGMGVSDPDAKKFYAITTLVPAIAFTMYLSMLLGYGLTMVPFGGEQNPIYWARYADWLFTTPLLLLDLALLVDADQGTILALVGADGIMIGTGLVGALTKVYSYRFVWWAISTAAMLYILYVLFFGFTQLVFTVKEAAAQQQESATTQKAEKEVTVASTFKVLRNVTVVLWSAYPVVWLIGSEGAGIVPLNIETLLFMVLDVSAKVGFGLILLRSRAIFGEAEAPEPSAGDGAAATSD
B7: BR-Rhodopsin loop 3 chimera, Rhodopsin Insert G224 to M253 (3E) (other)
chain: QAQITGRPEWIWLALGTALMGLGTLYFLVKGMGVSDPDAKKFYAITTLVPAIAFTMYLSMLLGYGLTMVPFGGEQNPIYWARYADWLFTTPLLLLDLALLVDADQGTILALVGADGIMIGTGLVGALTKVYSYRFVWWAISTAAMLYILYVLFFGFTGQLVFTVKEAAAQQQESATTQKAEKEVTRMVASTFKVLRNVTVVLWSAYPVVWLIGSEGAGIVPLNIETLLFMVLDVSAKVGFGLILLRSRAIFGEAEAPEPSAGDGAAATSD

Biological target: holotransducin
Experiment: cell-based or functional assay

Row | Binder | Activation (Fold increase) over BR [fold] | Activation (Fold increase) over Basal [fold] | Specific counts (Lattice Form) (at 30 min), 35S-GTPyS uptake [specific counts]
1 | B1 | 2.22 | 1.6 | 262000
2 | B2 | 1.6 | 1.17 | 193000
3 | B3 | 1.55 | 1.1 | 183000
4 | B4 | – | – | 118000

Biological target: holotransducin
Experiment: cell-based or functional assay
Remark: another data set of the same source

Row | Binder | Activation (x100%) Over Basal Exchange | Specific counts (Lattice Form), 10 Minutes, GTPyS uptake [specific counts]
5 | B1 | 1.44 x100% | –
6 | B5 | 1.17 x100% | 62800
7 | B6 | 1 x100% | 53400
8 | B7 | 1.46 x100% | 78400

Biological target: holotransducin
Experiment: cell-based or functional assay
Remark: another data set of the same source

Row | Binder | Activation (3C) over Basal Exchange, 100 uM GDP [fold]
9 | B1 | 1.67
